Changes are numbered by the printed parent chain.
B1: lipocalin mutein SEQ ID NO: 4 (designed binder)
chain: QDSTSDLIPAPPLSKVPLQQNFQDNQFHGKWYVVGWAGNTLLREDKDPTKMQATIYELKEDKSYNVTWVYFSEKKCNYHIETFVPGSQPGEFTLGTIKSYPGETSILVRVVSTNYNQHAMVFFKGVSQNREIFEITLYGRTKELTSELKENFIRFSKSLGLPENHIVFPVPIDQCIDGSAWSHPQFEK
notes: biotinylated by NHS chemistry for capture in SPR
B2: lipocalin mutein SEQ ID NO: 3 (designed binder)
chain: QDSTSDLIPAPPLSKVPLQQNFQDNQFHGKWYVVGFAGNMWLREDKDPFKMGATIYELKEDKSYNVTWVWFEAKKCDYGINTFVPGSQPGEFTLGGIKSPPGMTSHLVRVVSTNYNQHAMVFFKEVFQNREWFWITLYGRTKELTSELKENFIRFSKSLGLPENHIVFPVPIDQCIDGSAWSHPQFEK
B3: lipocalin mutein SEQ ID NO: 2 (designed binder)
chain: QDSTSDLIPAPPLSKVPLQQNFQDNQFHGKWYVVGEAGNWGLREDKDPKKMAATIYELKEDKSYNVTDVQFIEKKCDYWIGTFVPGSQPGEFTLGAIKSEPGQTSNLVRVVSTNYNQHAMVFFKEVWQNRELFWITLYGRTKELTSELKENFIRFSKSLGLPENHIVFPVPIDQCIDGSAWSHPQFEK
B4: lipocalin mutein SEQ ID NO: 6 (designed binder)
chain: QDSTSDLIPAPPLSKVPLQQNFQDNQFHGKWYVVGIAGNWWLREDKDPLKMYATIYELKEDKSYNVTHVMFMTKKCDYTIRTFVPGSQPGEFTLGNIKSIPGMTSLLVRVVSTNYNQHAMVFFKFVWQNREWFHITLYGRTKELTSELKENFIRFSKSLGLPENHIVFPVPIDQCIDGSAWSHPQFEK
B5: lipocalin mutein SEQ ID NO: 5 (designed binder)
chain: QDSTSDLIPAPPLSKVPLQQNFQDNQFHGKWYVVGRAGNAELREDKDPEKMEATIYELKEDKSYNVTDVGFWQKKCIYVIHTFVPGSQPGEFTLGNIKSYPGTTSALVRVVSTNYNQHAMVFFKVVRQNREWFEITLYGRTKELTSELKENFIRFSKSLGLPENHIVFPVPIDQCIDGSAWSHPQFEK
B6: lipocalin mutein SEQ ID NO: 15 (designed binder)
chain: B5 chain with G38A, A40D, E41R, W72S, Q73R, A106G, R127G, W132S
notes: as for B1

Key:
[1] = target: T1, human alpha CGRP (SEQ ID NO: 80) (human, not fully specified); experiment: competition ELISA in solution; free mutein detected on plate-bound biotinylated CGRP
T1 construct: also called human αCGRP; hαCGRP
T1 peptide: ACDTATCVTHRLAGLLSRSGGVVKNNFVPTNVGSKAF
Protocol: (§1) Binding of lipocalin muteins to alpha and beta CGRP from human and rat in solution was tested in vitro using a competition ELISA assay format (FIG. 1). In this experiment, a constant concentration of non-biotinylated CGRP (0.5 μM) was incubated for 1 h with variable concentrations of lipocalin muteins SEQ ID NO: 2, SEQ ID NO: 3, SEQ ID NO: 4; SEQ ID NO: 5, and SEQ ID NO: 6. After this pre-incubation in solution, an aliquot of the lipocalin mutein/CGRP mixture was transferred to an ELISA plate coated with Neutravidin-captured human alpha CGRP-bio to measure the concentration of lipocalin muteins that was not blocked by non-biotinylated human alpha CGRP (SEQ ID NO: 80) and therefore could still be bound by the immobilized human alpha CGRP-bio (FIG. 1). This procedure was performed on another relevant CGRP species (human beta CGRP (SEQ ID NO: 81), rat alpha CGRP (SEQ ID NO: 82), rat beta CGRP (SEQ ID NO: 83)). All incubation steps were performed with shaking at 300 rpm, and the plate was washed after each incubation step with 80 μL PBS-T buffer (PBS, 0.05% Tween 20) for five times using a Biotek ELx405 select CW washer. In the first step, a 384-well ELISA plate was coated with 20 μL of Neutravidin at a concentration of 5 μg/mL in PBS over night at 4° C. After washing, the plate was blocked with 60 μL PBS-T/BSA (2% BSA in PBS containing 0.05% Tween 20) for 1 h at room temperature.
(§2) To allow for detection and quantification of plate-bound lipocalin muteins, the residual supernatants were discarded and 20 μL HRP-labeled anti-hNGAL antibody was added at a predetermined optimal concentration in PBS-T/BSA and incubated for 1 h at RT. The anti-hNGAL antibody had been obtained by immunization of rabbits with a mixture of muteins, and was subsequently coupled to HRP using a kit (EZ-link Plus Activated Peroxidase, Thermo Scientific) according to the manufacturer's instructions, to obtain the antibody-HRP conjugate. After washing, 20 μl fluorogenic HRP substrate (QuantaBlu, Thermo) was added to each well, and the reaction was allowed to proceed for 15 to 60 minutes. The fluorescence intensity of every well on the plate was read using a fluorescence microplate reader (Tecan or Molecular Devices). To evaluate the data, free mutein concentration, c(mutein)free, was calculated based on the standard curve results, and plotted versus ligand concentration, c(Ligand).

[2] = target: T2, human beta CGRP (SEQ ID NO: 81) (human, not fully specified); experiment: as above
T2 construct: also called human βCGRP; hβCGRP
T2 peptide: T1 peptide with D3N, V22M, N25S
Protocol: as §1, §2

[3] = target: T3, rat alpha CGRP (SEQ ID NO: 82) (rat); experiment: as above
T3 construct: also called rat αCGRP; rat α-CGRP
T3 peptide: T1 peptide with A1S, D3N, N25D, K35E
Protocol: as §1, §2

[4] = target: T4, rat beta CGRP (SEQ ID NO: 83) (rat, not fully specified); experiment: as above
T4 construct: also called rat βCGRP; rat β-CGRP
T4 peptide: T1 peptide with A1S, D3N, N25D
Protocol: as §1, §2

[5] = target: T1, human alpha CGRP (SEQ ID NO: 80); experiment: SPR, 37 C, mutein captured, CGRP analyte
How it was run: (§3)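 Biotinylated lipocalin muteins were captured on streptavidin-oligo CAP chip, and CGRP was injected at 30, 3 and 0.3 nM or at a single 25 nM at 37 °C (180 s association, 5400 s dissociation) in HBS-EP+. Double-referenced sensorgrams were globally fit to a 1:1 model for ka and kd.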

[6] = target: T2, human beta CGRP (SEQ ID NO: 81); experiment: SPR, 37 C, mutein captured, CGRP analyte
How it was run: as §3

[7] = target: T3, rat alpha CGRP (SEQ ID NO: 82); experiment: SPR, 37 C, mutein captured, CGRP analyte
How it was run: as §3

[8] = target: T4, rat beta CGRP (SEQ ID NO: 83); experiment: SPR, 37 C, mutein captured, CGRP analyte
How it was run: as §3

[9] = target: T4, rat beta CGRP (SEQ ID NO: 83); experiment: SPR Biacore 37 °C, mutein captured as ligand, rb CGRP (1-37) injected, 1:1 fit; repeat run 130208_NAN-DS-047 (not the run of Table 2) [contd]
Protocol: (§4) The Biotin CAPture Kit (GE Healthcare) was used to immobilize biotinylated lipocalin muteins to a chip surface. Muteins were biotinylated using standard NHS chemistry. Undiluted Biotin CAPture Reagent (streptavidin conjugated with ss-DNA oligo) was captured on a Sensor Chip CAP with the pre-immobilized complementary ss-DNA oligo. Thereafter, biotinylated muteins at 1 μg/mL were applied for 300 s at a flow rate of 5 μL/min.
(§5) CGRP species were applied in three concentrations of 30 nM, 3 nM and 0.3 nM at a flow rate of 30 μL/min or in a single concentration of 25 nM per cycle as shown in FIG. 2. The dilutions were injected with association times of 180 s and dissociation times of 5400 sec to obtain ka and kd information. Regeneration of the chip surface was achieved by injecting 6 M Guanidinium-HCl+0.25 M NaOH (120 s) with a flow rate of 10 μL/min. Injection of regeneration solutions was followed by an extra wash step with HBS-EP+(1×; BR-1006-69; GE Healthcare) running buffer and a stabilization period of 120 s.
(§6) The data were double-referenced by subtraction of the corresponding signals measured for the control channel (loaded with Biotin CAPture reagent only) and by subtraction of buffer injections from the binding responses. Association rate constant ka and dissociation rate constant kd for the binding reaction were determined using Biacore T200 Evaluation Software V2.0 for data processing and kinetic fitting. The data were globally fit with 1:1 binding model.

[10] = target: T3, rat alpha CGRP (SEQ ID NO: 82); experiment: SPR Biacore 37 °C, mutein captured as ligand, ra CGRP (1-37) injected, 1:1 fit; repeat run 130208_NAN-DS-047 (not the run of Table 2) [contd]
Protocol: as §4, §5, §6

[11] = target: T2, human beta CGRP (SEQ ID NO: 81); experiment: SPR Biacore 37 °C, mutein captured as ligand, hb CGRP (1-37) injected, 1:1 fit; repeat run 130208_NAN-DS-047 (not the run of Table 2) [contd]
Protocol: as §4, §5, §6

[12] = target: T1, human alpha CGRP (SEQ ID NO: 80); experiment: SPR Biacore 37 °C, mutein captured as ligand, ha CGRP (1-37) injected, 1:1 fit; repeat run 130208_NAN-DS-047 (not the run of Table 2) [contd]
Protocol: as §4, §5, §6

Row | Binder | IC50 [1] | IC50 [2] | IC50 [3] | IC50 [4] | Kd [5] | koff [5] | kon [5] | Kd [6] | koff [6] | kon [6] | Kd [7] | koff [7] | kon [7] | Kd [8] | koff [8] | kon [8] | further results
1 | B1 | 2.1 nM | 1.8 nM | 2.6 nM | 3 nM | 1.82 nM | 0.00302 s⁻¹ | 1.66e+06 M⁻¹ s⁻¹ | 0.753 nM | 0.00395 s⁻¹ | 5.24e+06 M⁻¹ s⁻¹ | 5 nM | 0.00621 s⁻¹ | 1.24e+06 M⁻¹ s⁻¹ | 2.19 nM | 0.00365 s⁻¹ | 1.66e+06 M⁻¹ s⁻¹ | 
2 | B2 | 7.5 nM | 14 nM |  | 12 nM |  |  |  |  |  |  |  |  |  |  |  |  | 
3 | B3 | 55 nM | 46 nM | 35 nM | 47 nM |  |  |  |  |  |  |  |  |  |  |  |  | 
4 | B4 | 3.1 nM |  | 0.77 nM | 1.6 nM |  |  |  |  |  |  |  |  |  |  |  |  | 
5 | B5 | 36 nM | 28 nM | 21 nM | 27 nM |  |  |  |  |  |  |  |  |  |  |  |  | 
6 | B6 |  |  |  |  | 0.038 nM | 0.000238 s⁻¹ | 6.32e+06 M⁻¹ s⁻¹ | 0.018 nM | 0.000273 s⁻¹ | 1.53e+07 M⁻¹ s⁻¹ | 0.17 nM | 0.000274 s⁻¹ | 1.59e+06 M⁻¹ s⁻¹ | 0.039 nM | 0.000193 s⁻¹ | 4.98e+06 M⁻¹ s⁻¹ | koff [9]: 0.000178 s⁻¹; kon [9]: 2.31e+06 M⁻¹ s⁻¹; koff [10]: 0.000295 s⁻¹; kon [10]: 1.38e+06 M⁻¹ s⁻¹; koff [11]: 0.000309 s⁻¹; kon [11]: 1.22e+07 M⁻¹ s⁻¹; koff [12]: 0.000256 s⁻¹; kon [12]: 5.23e+06 M⁻¹ s⁻¹

— patent US20190338002A1 (Pieris, published 2019)
